Measured values as given in patent publication US20240400693A1 (Chugai, published 2024).
Read-outs that look alike come from different tables or passages of the source.

T1: HLA-DQ5.1 on Ba/F3 cells (human, limits assumed)
T1 construct: whole, on cells; also called Ba/F3-HLA-DQ5.1
T1 MHC II alpha: not shown
T1 MHC II beta: not shown

T2: HLA-DQ6.3 on Ba/F3 cells (human, UniProt P01920 33-230, limits assumed)
T2 construct: whole, on cells; also called Ba/F3-HLA-DQ6.3
T2 MHC II alpha: not shown
T2 MHC II beta: not shown

T3: HLA-DR on Ba/F3 cells (human, UniProt P01903 26-216; P79483 30-227, limits assumed)
T3 construct: whole, on cells; also called Ba/F3-HLA-DR
T3 MHC II alpha: not shown
T3 MHC II beta: not shown

T4: HLA-DQ2.2 on Ba/F3 cells (human, UniProt P01909 24-216, limits assumed)
T4 construct: whole, on cells; also called Ba/F3-HLA-DQ2.2
T4 MHC II alpha: not shown
T4 MHC II beta: not shown

T5: HLA-DQ8 on Ba/F3 cells (human, UniProt P01909 24-216; P01920 33-230, limits assumed)
T5 construct: whole, on cells; also called Ba/F3-HLA-DQ8
T5 MHC II alpha: not shown
T5 MHC II beta: not shown

T6: HLA-DQ7.3 on Ba/F3 cells (human, UniProt P01909 24-216; P01920 33-230, limits assumed)
T6 construct: whole, on cells; also called Ba/F3-HLA-DQ7.3
T6 MHC II alpha: not shown
T6 MHC II beta: not shown


Experiments:
[1] = target: HLA-DQ2.5 on IHW09023 cells loaded with 33mer gliadin peptide (human; wheat); assay: cell-based or functional assay
[2] = target: HLA-DQ2.5 on IHW09023 cells loaded with omega1/2 gliadin peptide (human; wheat); assay: cell-based or functional assay
[3] = target: HLA-DQ2.5 on IHW09023 cells loaded with BC hordein peptide (human; barley); assay: cell-based or functional assay
[4] = target: HLA-DQ2.5 on IHW09023 cells loaded with gamma 1 gliadin peptide (human; wheat); assay: cell-based or functional assay
[5] = target: HLA-DQ2.5 on IHW09023 cells loaded with gamma 2 gliadin peptide (human; wheat); assay: cell-based or functional assay
[6] = target: HLA-DQ2.5 on IHW09023 cells loaded with gamma 3 gliadin peptide (human; wheat); assay: cell-based or functional assay
[7] = target: HLA-DQ2.5 on IHW09023 cells loaded with gamma 4a gliadin peptide (human; wheat); assay: cell-based or functional assay
[8] = target: HLA-DQ2.5 on IHW09023 cells loaded with gamma 4d gliadin peptide (human; wheat); assay: cell-based or functional assay
HLA-DQ5.1 on Ba/F3 cells = target: T1, HLA-DQ5.1 on Ba/F3 cells; assay: FACS, Ba/F3 cells; raw MFI
HLA-DQ6.3 on Ba/F3 cells = target: T2, HLA-DQ6.3 on Ba/F3 cells; assay: FACS, Ba/F3 cells; raw MFI
HLA-DR on Ba/F3 cells = target: T3, HLA-DR on Ba/F3 cells; assay: FACS, Ba/F3 cells; raw MFI
HLA-DP on Ba/F3 cells = target: T7, HLA-DP on Ba/F3 cells (human, UniProt P20036 29-222; P04440 30-225, limits assumed); assay: FACS, Ba/F3 cells; raw MFI
T7 construct: whole, on cells; also called Ba/F3-HLA-DP

HLA-DQ2.5 on Ba/F3 cells [9] = target: T8, HLA-DQ2.5 on Ba/F3 cells (human, UniProt P01909 24-216, limits assumed); assay: FACS, Ba/F3 cells; %MFI: IC17dK 0, DQN0139bb 100
T8 construct: whole, on cells; MHC class II without fused peptide; also called Ba/F3-HLA-DQ2.5

HLA-DQ2.2 on Ba/F3 cells [10] = target: T4, HLA-DQ2.2 on Ba/F3 cells; assay: FACS, Ba/F3 cells; %MFI: IC17dK 0, DQN0139bb 100
HLA-DQ7.5 on Ba/F3 cells [11] = target: T9, HLA-DQ7.5 on Ba/F3 cells (human, UniProt P01909 24-216; P01920 33-230, limits assumed); assay: FACS, Ba/F3 cells; %MFI: IC17dK 0, DQN0139bb 100
T9 construct: whole, on cells; also called Ba/F3-HLA-DQ7.5

HLA-DQ8 on Ba/F3 cells [12] = target: T5, HLA-DQ8 on Ba/F3 cells; assay: FACS, Ba/F3 cells; %MFI: IC17dK 0, DQN0139bb 100
HLA-DQ7.3 on Ba/F3 cells [13] = target: T6, HLA-DQ7.3 on Ba/F3 cells; assay: FACS, Ba/F3 cells; %MFI: IC17dK 0, DQN0139bb 100
HLA-DQ2.5 on Ba/F3 cells [14] = target: T8, HLA-DQ2.5 on Ba/F3 cells; assay: FACS, Ba/F3 cells; %MFI: IC17dK 0, DQN0139bb 100; remark: listed apart in the source
HLA-DQ2.2 on Ba/F3 cells [15] = target: T4, HLA-DQ2.2 on Ba/F3 cells; assay: FACS, Ba/F3 cells; %MFI: IC17dK 0, DQN0139bb 100
HLA-DQ7.5 on Ba/F3 cells [16] = target: T9, HLA-DQ7.5 on Ba/F3 cells; assay: FACS, Ba/F3 cells; %MFI: IC17dK 0, DQN0139bb 100; remark: listed apart in the source
HLA-DQ8 on Ba/F3 cells [17] = target: T5, HLA-DQ8 on Ba/F3 cells; assay: FACS, Ba/F3 cells; %MFI: IC17dK 0, DQN0139bb 100
HLA-DQ7.3 on Ba/F3 cells [18] = target: T6, HLA-DQ7.3 on Ba/F3 cells; assay: FACS, Ba/F3 cells; %MFI: IC17dK 0, DQN0139bb 100

T7 sequence (P20036 29-222 limits assumed, chain 1 of 4, other chains not shown): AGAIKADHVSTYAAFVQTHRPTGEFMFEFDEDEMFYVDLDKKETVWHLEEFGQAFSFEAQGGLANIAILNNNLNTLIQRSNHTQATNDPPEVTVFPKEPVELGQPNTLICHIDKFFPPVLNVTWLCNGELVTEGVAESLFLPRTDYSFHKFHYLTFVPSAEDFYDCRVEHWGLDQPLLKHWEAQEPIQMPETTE
T7 sequence (P04440 30-225 limits assumed, chain 2 of 4, other chains not shown): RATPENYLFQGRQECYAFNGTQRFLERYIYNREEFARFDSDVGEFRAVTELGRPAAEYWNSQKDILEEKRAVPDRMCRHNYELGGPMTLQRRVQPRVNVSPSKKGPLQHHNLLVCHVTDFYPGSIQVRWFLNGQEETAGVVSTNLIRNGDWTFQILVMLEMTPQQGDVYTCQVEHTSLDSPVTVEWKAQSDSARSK

Binder	IC50 (ng/mL), α1a gliadin TCR, 250 nM 33mer gliadin [1] [ng/mL]	IC50 (ng/mL), α1b gliadin TCR, 250 nM 33mer gliadin [1] [ng/mL]	IC50 (ng/mL), α2 gliadin TCR, 250 nM 33mer gliadin [1] [ng/mL]	IC50 (ng/mL), ω1 gliadin TCR, 25 µM ω1/2 gliadin [2] [ng/mL]	IC50 (ng/mL), BC hordein TCR, 250 nM BC hordein [3] [ng/mL]	IC50 (ng/mL), γ1 gliadin TCR, 250 nM γ1 gliadin [4] [ng/mL]	IC50 (ng/mL), γ2 gliadin TCR, 250 nM γ2 gliadin [5] [ng/mL]	IC50 (ng/mL), γ3 gliadin TCR, 100 µM γ3 gliadin [6] [ng/mL]	IC50 (ng/mL), γ4a gliadin TCR, 25 µM γ4a gliadin [7] [ng/mL]	IC50 (ng/mL), γ4d gliadin TCR, 100 µM γ4d gliadin [8] [ng/mL]	binding result (HLA-DQ5.1 on Ba/F3 cells)	binding result (HLA-DQ6.3 on Ba/F3 cells)	binding result (HLA-DR on Ba/F3 cells)	binding result (HLA-DP on Ba/F3 cells)	other results
DQN0344H1013/L0620//DQN0385H1352/L0681-F6 (bispecific antibody) heavy 1: QVQLVESGGGVVQPGRSLRLSCAASGFTFSSAYWMVWVRQAPGQGLEWMGAVYGGSDTTYYAKWTEGRFTISRDTSKNTLYLQMNSLRAEDTAVYYCAREPLNYYYYGELNVWGQGTLVTVSSASTKGPSVFPLAPSSKSTSGGTAALGCLVKDYFPEPVTVSWNSGALTSGVHTFPAVLKSSGLYSLSSVVTVPSSSLGTQTYICNVNHKPSNTKVDKRVEPKSCDKTHTCPPCPAPELRRGPSVFLFPPKPKDTLMISRTPEVTCVVVDVSHEDPEVKFNWYVDGVEVHNAKTKPREEQYNSTYRVVSVLTVLHQDWLNGKEYKCKVSNKALPAPIEKTISKAKGQPREPQVYTLPPSREEMTKNQVSLTCLVKGFYPSDIAVEWESNGQPENNYKTTPPYLDSDGSFFLYSKLTVDKSRWQEGNVFSCSVLHEALHAHYTREELSLSP light 1: DIQMTQSPSSLSASVGDRVTITCQATENIYSGLAWYQQKPGKAPKLLIYYVSTLAYGIPARFSGSGSGTDFTLTISSLEPEDFAVYYCQTYEDVSAVTFGQGTKVEIKRTVAAPSVFIFPPSDEQLKSGTAEVVCLLNNFYPREAKVQWKVDNALQSGNSEESVTEQDSKDSTYSLSSTLTLSKADYEKHKVYACEVTHQGLSSPVTKSFNRGEC heavy 2: QVQLVESGGGVVQPGRSLRLSCAASGFEFSEWYFMSWVRQAPGKGLEWVASIDTGSGSIDYAEWVEGRFTISRDNSKNTLYLQMNSLRAEDTAVYYCARDIGIDYNFWGPGTLVTVSSASTKGPSVFPLAPSSKSTSGGTAALGCLVEDYFPEPVTVSWNSGALTSGVHTFPAVLESSGLYSLSSVVTVPSSSLGTKTYICNVNHKPSNTKVDKRVEPKSCDKTHTCPPCPAPELRRGPSVFLFPPKPKDTLMISRTPEVTCVVVDVSHEDPEVKFNWYVDGVEVHNAKTKPREEQYNSTYRVVSVLTVLHQDWLNGKEYKCKVSNKALPAPIEKTISKAKGQPREPQVYTLPPSRKEMTKNQVSLTCLVKGFYPSDIAVEWESNGQPENNYKTTPPYLDSDGSFFLYSKLTVDKSRWQQGNVFSCSVLHEALHAHYTRKELSLSP light 2: DIQMTQSPSSLSASVGDRVTITCQTTQSISSYLNWYQQKPGQPPKLLIYYASTKAEGIPARFSGSGLGTDFTLTISSLEPEDFAVYYCHYGISKVSFGQGTKVEIKRTVAAPSVFIFPPSDEQLKSGTAKVVCLLNNFYPREAKVQWKVDNALQSGNSKESVTEQDSKDSTYSLSSTLTLSKADYEKHKVYACEVTHQGLSSPVTKSFNRGEC	0.26	1.13	0.38	1.88	11.6	1.71	279	3.15	1730	3.15	no binding (tested: 0.05 micro g/mL)	no binding (tested: 0.05 micro g/mL)	no binding (tested: 0.05 micro g/mL)	no binding (tested: 0.05 micro g/mL)	IC50 (ng/mL), ω2 gliadin TCR, 250 nM ω1/2 gliadin [2]: 0.27 ng/mL; binding result (HLA-DQ2.5 on Ba/F3 cells [9]): no binding (tested: 0.05 micro g/mL); binding result (HLA-DQ2.2 on Ba/F3 cells [10]): no binding (tested: 0.05 micro g/mL); binding result (HLA-DQ7.5 on Ba/F3 cells [11]): no binding (tested: 0.05 micro g/mL); binding result (HLA-DQ8 on Ba/F3 cells [12]): no binding (tested: 0.05 micro g/mL); binding result (HLA-DQ7.3 on Ba/F3 cells [13]): no binding (tested: 0.05 micro g/mL)
DQN0344H1013/L0620//DQN0385H1521/L0605-F6 (bispecific antibody) heavy 1: QVQLVESGGGVVQPGRSLRLSCAASGFTFSSAYWMVWVRQAPGQGLEWMGAVYGGSDTTYYAKWTEGRFTISRDTSKNTLYLQMNSLRAEDTAVYYCAREPLNYYYYGELNVWGQGTLVTVSSASTKGPSVFPLAPSSKSTSGGTAALGCLVKDYFPEPVTVSWNSGALTSGVHTFPAVLKSSGLYSLSSVVTVPSSSLGTQTYICNVNHKPSNTKVDKRVEPKSCDKTHTCPPCPAPELRRGPSVFLFPPKPKDTLMISRTPEVTCVVVDVSHEDPEVKFNWYVDGVEVHNAKTKPREEQYNSTYRVVSVLTVLHQDWLNGKEYKCKVSNKALPAPIEKTISKAKGQPREPQVYTLPPSREEMTKNQVSLTCLVKGFYPSDIAVEWESNGQPENNYKTTPPYLDSDGSFFLYSKLTVDKSRWQEGNVFSCSVLHEALHAHYTREELSLSP light 1: DIQMTQSPSSLSASVGDRVTITCQATENIYSGLAWYQQKPGKAPKLLIYYVSTLAYGIPARFSGSGSGTDFTLTISSLEPEDFAVYYCQTYEDVSAVTFGQGTKVEIKRTVAAPSVFIFPPSDEQLKSGTAEVVCLLNNFYPREAKVQWKVDNALQSGNSEESVTEQDSKDSTYSLSSTLTLSKADYEKHKVYACEVTHQGLSSPVTKSFNRGEC heavy 2: QVQLVESGGGVVQPGRSLRLSCAASGFTFESWYFMSWVRQAPGKGLEWVASIDTGSGSIDYAEWVEGRFTISRDNSKNTLYLQMNSLRAEDTAVYYCARDIGIDYNFWGPGTLVTVSSASTKGPSVFPLAPSSKSTSGGTAALGCLVEDYFPEPVTVSWNSGALTSGVHTFPAVLESSGLYSLSSVVTVPSSSLGTKTYICNVNHKPSNTKVDKRVEPKSCDKTHTCPPCPAPELRRGPSVFLFPPKPKDTLMISRTPEVTCVVVDVSHEDPEVKFNWYVDGVEVHNAKTKPREEQYNSTYRVVSVLTVLHQDWLNGKEYKCKVSNKALPAPIEKTISKAKGQPREPQVYTLPPSRKEMTKNQVSLTCLVKGFYPSDIAVEWESNGQPENNYKTTPPYLDSDGSFFLYSKLTVDKSRWQQGNVFSCSVLHEALHAHYTRKELSLSP light 2: DIQMTQSPSSLSASVGDRVTITCQTTQSISSYLNWYQQKPGQPPKLLIYYASTKAEGIPARFSGSGSGTDFTLTISSLEPEDFAVYYCHYGISKVSFGQGTKVEIKRTVAAPSVFIFPPSDEQLKSGTAKVVCLLNNFYPREAKVQWKVDNALQSGNSKESVTEQDSKDSTYSLSSTLTLSKADYEKHKVYACEVTHQGLSSPVTKSFNRGEC	0.28	1.76	0.33	1.91	8.98	0.68	853	1.4	1350	13	no binding (tested: 0.05 micro g/mL)	no binding (tested: 0.05 micro g/mL)	no binding (tested: 0.05 micro g/mL)	no binding (tested: 0.05 micro g/mL)	binding result (HLA-DQ2.5 on Ba/F3 cells [14]): no binding (tested: 0.05 micro g/mL); binding result (HLA-DQ2.2 on Ba/F3 cells [15]): no binding (tested: 0.05 micro g/mL); binding result (HLA-DQ7.5 on Ba/F3 cells [16]): no binding (tested: 0.05 micro g/mL); binding result (HLA-DQ8 on Ba/F3 cells [17]): no binding (tested: 0.05 micro g/mL); binding result (HLA-DQ7.3 on Ba/F3 cells [18]): no binding (tested: 0.05 micro g/mL)
